According to patent publication US20240034816A1 (Sanofi, published 2024):

How the values were obtained:
human CD64 (human FcγRI) [1] = target: T1, human CD64 (human FcγRI) (human, UniProt P12314 16-292, limits assumed); experiment: SPR, fit 1:1 Binding, Exp No 3
T1 construct: also called HuFcyRI

cynomolgus CD16 [2] = target: T2, cynomolgus CD16 (cynomolgus, UniProt Q8SPW2 17-208); experiment: SPR, fit Two State Reaction, Exp No 1
T2 construct: also called CyFcyRIII

[3] = target: T3, human CD16a (human FcγRIIIA), V isoform (human, UniProt P08637 17-208); experiment: SPR, fit Two State Reaction, Exp No 1
T3 construct: also called HuFcyRIIIaV; CD16a (V176)
T3 sequence (P08637 17-208 F176V limits assumed): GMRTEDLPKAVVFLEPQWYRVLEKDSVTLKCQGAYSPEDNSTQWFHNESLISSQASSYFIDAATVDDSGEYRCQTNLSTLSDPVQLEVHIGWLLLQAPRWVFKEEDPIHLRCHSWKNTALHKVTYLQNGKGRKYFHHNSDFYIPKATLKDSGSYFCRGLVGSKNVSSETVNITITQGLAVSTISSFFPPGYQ

cynomolgus CD16 [4] = target: T2, cynomolgus CD16; experiment: SPR, fit Two State Reaction, Exp No 2
[5] = target: T3, human CD16a (human FcγRIIIA), V isoform; experiment: SPR, fit Two State Reaction, Exp No 2
cynomolgus CD32a [6] = target: T4, cynomolgus CD32a (cynomolgus); experiment: SPR, fit Steady State Affinity, Exp No 2
T4 construct: also called CyFcyRIIa

cynomolgus CD32b [7] = target: T5, cynomolgus CD32b (cynomolgus); experiment: SPR, fit Steady State Affinity, Exp No 2
T5 construct: also called CyFcyRIIb

[8] = target: T6, human CD32a (human FcγRIIA) (human, UniProt P12318 34-217, limits assumed); experiment: SPR, fit Steady State Affinity, Exp No 2
T6 construct: also called HuFcyRIIa
T6 sequence (looked up): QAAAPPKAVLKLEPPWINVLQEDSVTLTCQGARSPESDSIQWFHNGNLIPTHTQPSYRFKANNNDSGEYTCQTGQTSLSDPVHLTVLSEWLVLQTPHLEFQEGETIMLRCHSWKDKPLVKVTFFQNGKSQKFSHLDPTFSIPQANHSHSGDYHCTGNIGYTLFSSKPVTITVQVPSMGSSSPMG

[9] = target: T7, human CD32b (human FcγRIIB) (human, UniProt P31994 43-217, limits assumed); experiment: SPR, fit Steady State Affinity, Exp No 2
T7 construct: also called HuFcyRIIb
T7 sequence (looked up): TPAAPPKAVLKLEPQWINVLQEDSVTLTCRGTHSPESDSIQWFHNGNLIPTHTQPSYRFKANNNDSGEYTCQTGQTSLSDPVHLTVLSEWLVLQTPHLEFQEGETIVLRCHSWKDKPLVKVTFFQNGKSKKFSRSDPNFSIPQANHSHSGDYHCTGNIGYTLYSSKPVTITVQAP

[10] = target: T8, human CD16b (human FcgRIIIB) (human, UniProt O75015 17-200, limits assumed); experiment: SPR, fit Steady State Affinity, Exp No 2
T8 construct: also called HuFcyRIIIb
T8 sequence (O75015 17-200 limits assumed): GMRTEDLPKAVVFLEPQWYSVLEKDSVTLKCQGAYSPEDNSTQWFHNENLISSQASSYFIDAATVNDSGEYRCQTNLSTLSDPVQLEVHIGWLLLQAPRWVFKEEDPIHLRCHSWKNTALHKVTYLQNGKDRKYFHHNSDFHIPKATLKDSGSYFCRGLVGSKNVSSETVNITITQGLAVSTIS

human CD64 (human FcγRI) [11] = target: T1, human CD64 (human FcγRI); experiment: SPR, fit 1:1 Binding, mean of 3 experiments
cynomolgus CD16 [12] = target: T2, cynomolgus CD16; experiment: SPR, fit Two State Reaction, mean of 3 experiments
[13] = target: T3, human CD16a (human FcγRIIIA), V isoform; experiment: SPR, fit Two State Reaction, mean of 3 experiments
cynomolgus CD32a [14] = target: T4, cynomolgus CD32a; experiment: SPR, fit Steady State Affinity, mean of 3 experiments
cynomolgus CD32b [15] = target: T5, cynomolgus CD32b; experiment: as above
[16] = target: T6, human CD32a (human FcγRIIA); experiment: as above
[17] = target: T7, human CD32b (human FcγRIIB); experiment: as above
[18] = target: T8, human CD16b (human FcgRIIIB); experiment: as above
[19] = target: T9, human BCMA on RPMI 8226 multiple myeloma cells (human, UniProt Q02223 1-184); experiment: flow cytometry titration on RPMI 8226 cells, detection with goat anti-human IgG Fcγ-PE; representative titration
T9 construct: whole, on cells; also called BCMA on RPMI cells
T9 sequence (looked up): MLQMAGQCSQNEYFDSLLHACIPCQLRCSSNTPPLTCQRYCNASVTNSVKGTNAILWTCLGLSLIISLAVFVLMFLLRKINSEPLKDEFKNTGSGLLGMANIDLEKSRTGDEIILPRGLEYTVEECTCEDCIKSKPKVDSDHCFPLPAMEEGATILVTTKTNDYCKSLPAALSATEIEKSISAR
Experimental: (§1) After staining, cells were resuspended in BD Cellfix and analyzed by flow cytometry. Parameters were recorded and analysed with FlowJo software. Staining EC50 values were calculated with GraphPad prism using 4 parameter logistics non-linear regression model.

[20] = target: T10, human NKp46 on NK cells purified from PBMC of healthy donors (human, UniProt O76036 22-304); experiment: flow cytometry titration on resting human NK cells from healthy donors, detection with goat anti-human IgG Fcγ-PE; representative titration; NK cells also carry CD16a
T10 construct: whole, on cells; also called NKp46 on donor NK cells
T10 sequence (O76036 22-304): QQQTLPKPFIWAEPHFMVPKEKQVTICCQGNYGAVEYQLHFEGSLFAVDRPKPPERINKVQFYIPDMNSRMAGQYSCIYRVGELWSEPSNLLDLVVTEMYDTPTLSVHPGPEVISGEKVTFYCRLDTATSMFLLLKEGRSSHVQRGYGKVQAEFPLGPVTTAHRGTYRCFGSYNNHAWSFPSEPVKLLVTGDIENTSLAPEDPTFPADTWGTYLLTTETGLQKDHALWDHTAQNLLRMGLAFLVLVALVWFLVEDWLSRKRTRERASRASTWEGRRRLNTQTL
Experimental: as §1

[21] = target: T10, human NKp46 on NK cells purified from …; experiment: flow cytometry titration on resting human NK cells from healthy donors, detection with goat anti-human IgG Fcγ-PE, 4-parameter fit; mean of 3 NK donors; NK cells also carry CD16a
Experimental: as §1

T2 sequence (Q8SPW2 17-208): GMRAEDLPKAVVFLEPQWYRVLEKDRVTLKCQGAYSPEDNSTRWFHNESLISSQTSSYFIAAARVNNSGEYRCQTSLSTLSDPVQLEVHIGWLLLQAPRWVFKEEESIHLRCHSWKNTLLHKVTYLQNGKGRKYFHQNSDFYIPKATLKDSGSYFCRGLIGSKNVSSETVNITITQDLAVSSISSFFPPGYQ
T1 sequence (P12314 16-292 limits assumed): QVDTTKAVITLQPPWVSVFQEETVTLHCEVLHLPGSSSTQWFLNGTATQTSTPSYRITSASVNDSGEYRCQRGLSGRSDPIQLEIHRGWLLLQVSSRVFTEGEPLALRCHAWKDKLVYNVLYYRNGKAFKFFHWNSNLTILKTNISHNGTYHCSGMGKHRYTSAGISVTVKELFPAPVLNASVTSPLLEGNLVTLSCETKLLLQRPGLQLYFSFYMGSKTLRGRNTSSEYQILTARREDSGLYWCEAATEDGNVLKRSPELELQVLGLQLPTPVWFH

B1: NKp46-BCMA_Fc-ADE-DSB NKCE (bispecific antibody, human IgG1, kappa)
light: QTVVTQEPSLTVSPGGTVTLTCASSTGTVTPSNYANWVQQKPGQAFRGLIGDNNSRPPGTPARFSASLLGGKAALTLSGVQPEDEAEYYCALWFGNQWVFGGGTKLTVLGGGGSGGGGSDIQMTQSPSSLSASVGDRVTITCRASQDISNYLNWYQQKPGKAPKLLIYYTSRLHSGVPSRFSGSGSGTDFTFTISSLQPEDIATYFCQQGNTRPWTFGGGTKVEIKGGGGSGGGGSRTVAAPSVFIFPPSDEQLKSGTASVVCLLNNFYPREAKVQWKVDNALQSGNSQESVTEQDSKDSTYSLSSTLTLSKADYEKHKVYACEVTHQGLSSPVTKSFNRGEC
heavy: QVQLVQSGAEVKKPGSSVKVSCKASGYTFSDYVINWVRQAPGQGLEWMGEIYPGSGTNYYNEKFKAKATITADKSTSTAYMELSSLRSEDTAVYYCARRGRYGLYAMDYWGQGTTVTVSSQVQLVESGGGVVQPGRSLRLSCAASGFTFSNFGMHWVRQAPGRGLEWVAVIWSDETNRYYADSVKGRFTVSRDNVKSTVYLQMNSLISEDTAVYYCARDQQYCSSDSCFTWFDPWGQGTLVTVSSASTKGPSVFPLAPSSKSTSGGTAALGCLVKDYFPEPVTVSWNSGALTSGVHTFPAVLQSSGLYSLSSVVTVPSSSLGTQTYICNVNHKPSNTKVDKKVEPKSCDKTHTCPPCPAPELLAGPDVFLFPPKPKDTLMISRTPEVTCVVVDVSHEDPEVKFNWYVDGVEVHNAKTKPCEEQYNSTYRCVSVLTVLHQDWLNGKEYKCKVSNKALPAPEEKTISKAKGQPREPQVYTLPPCRDELTKNQVSLWCLVKGFYPSDIAVEWESNGQPENNYKTTPPVLDSDGSFFLYSKLTVDKSRWQQGNVFSCSVMHEALHNHYTQKSLSLSPG
chain: DKTHTCPPCPAPELLAGPDVFLFPPKPKDTLMISRTPEVTCVVVDVSHEDPEVKFNWYVDGVEVHNAKTKPCEEQYNSTYRCVSVLTVLHQDWLNGKEYKCKVSNKALPAPEEKTISKAKGQPREPQVCTLPPSRDELTKNQVSLSCAVKGFYPSDIAVEWESNGQPENNYKTTPPVLDSDGSFFLVSKLTVDKSRWQQGNVFSCSVMHEALHNRFTQKSLSLSPG
Q: Which Kd (human CD64 (human FcγRI) [1]) does the source give for B1 here?
A: Its Kd is 0.00038 µM.

Q: What about the Kd (cynomolgus CD16 [2]) of the same binder?
A: The Kd was 0.01 µM.

Q: And the Kd [3]?
A: Its Kd is 0.0117 µM.

Q: And the Kd (cynomolgus CD16 [4])?
A: Its Kd is 0.0093 µM.

Q: What about the Kd [5] of the same binder?
A: Its Kd is 0.0121 µM.

Q: And the Kd (cynomolgus CD32a [6])?
A: Its Kd is 1.44 µM.

Q: And the Kd (cynomolgus CD32b [7])?
A: The Kd was 1.07 µM.

Q: And the Kd [8]?
A: Its Kd is 0.656 µM.

Q: What about the Kd [9] of the same binder?
A: Its Kd is 1.06 µM.

Q: And the Kd [10]?
A: Its Kd is 1.69 µM.

Q: And the Kd (human CD64 (human FcγRI) [11])?
A: The Kd was 0.00032 µM.

Q: And the Kd (cynomolgus CD16 [12])?
A: Its Kd is 0.0117 µM.

Q: And the Kd [13]?
A: The Kd was 0.0134 µM.

Q: And the Kd (cynomolgus CD32a [14])?
A: Its Kd is 1.5 µM.

Q: What about the Kd (cynomolgus CD32b [15]) of the same binder?
A: The Kd was 1.08 µM.

Q: What about the Kd [16] of the same binder?
A: Its Kd is 0.678 µM.

Q: What about the Kd [17] of the same binder?
A: The Kd was 1.28 µM.

Q: And the Kd [18]?
A: Its Kd is 1.76 µM.

Q: What about the “EC50 (read off the curve)” value [19] of the same binder?
A: Its value is about 1 mg/L.

Q: What about the “EC50 (read off the curve)” value [20] of the same binder?
A: Its value is about 0.9 mg/L.

Q: What about the EC50 [21] of the same binder?
A: Its EC50 is 0.643 mg/L.
